Test results: US20240327535A1 (EISAI R AND D MANAGEMENT, published 2024)
Substitutions are numbered along the chain they refer to.

T1: human BCMA on NCI-H929, OPM2 and Raji cells (human, UniProt Q02223 1-184)
T1 construct: endogenous BCMA of human cell lines; also called TNFRSF17; CD269
T1 chain: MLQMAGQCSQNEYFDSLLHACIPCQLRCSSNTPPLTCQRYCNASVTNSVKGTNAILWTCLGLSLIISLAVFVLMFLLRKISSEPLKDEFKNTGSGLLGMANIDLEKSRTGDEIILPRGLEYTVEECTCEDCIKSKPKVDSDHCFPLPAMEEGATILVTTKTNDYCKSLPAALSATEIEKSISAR

T2: extracellular domain of human BCMA (human, UniProt Q02223 1-54)
T2 construct: amine-linked to Octet AR2G tips; also called hsBCMA; BCMA (human)
T2 sequence: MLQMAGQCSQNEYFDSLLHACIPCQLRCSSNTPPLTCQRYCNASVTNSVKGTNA

B1: AB214 (antibody, human IgG1, kappa, V domains shown)
VH: QVQLVQSGAEVKKPGSSVKVSCKASGGTFSNYWIHWVRQAPGQGLEWMGATYRSQSDTYYNQKYKSRVTITADKSTSTAYMELSSLRSEDTAVYYCARGAVYHGYDVIDNWGQGTLVTVSS
VL: DIQMTQSPSSLSASVGDRVTITCRASQSISSYLNWYQQKPGKAPKLLIYATSNLQIGVPSRFSGSGSGTDFTLTISSLQPEDFATYYCQQYRRIPWTFGQGTKLEIKR
notes: IgG1 kappa
B2: AB200-mcMMAF-05 (antibody, human IgG1, kappa, V domains shown)
VH: B1 VH with I34M, S54G, Q55H, Y64F, S66G, V101I, H103D, I108L
VL: B1 VL with R24S, S28D, S31N, A50Y, Q55H, I56S, R93K, I94L
modifications: mcMMAF (ADL10-MMAF) linker-payload on cysteine residues of the antibody, DAR 4.0
notes: antibody-drug conjugate; also called AB200-ADL10-MMAF
B3: AB200-(2Vk8)_R2-CDR1-hs-v4 (Fab, V domains shown)
VH: B1 VH with N31S, W33A, H35S, Y59F, Y64F
VL: B1 VL with L33I, Y91F, R93K, I94L, T97S
B4: AB200-(2Vk8)_R2-CDR2-hs-v2 (Fab, V domains shown)
VH: QVQLVQSGAEVKKPGSSVKVSCKASGGSFSNYWIHWVRQAPGQGLEWMGGIIPIFGTANYAQKFQGRVTITADKSTSTAYMELSSLRSEDTAVYYCARGAIFHGYDVIDNWGQGTLVTVSS
VL: B1 VL with L33I, Y91F, R93K, I94L, T97S
B5: AB200-ADL5-D4-05 (antibody, human IgG1, kappa, V domains shown)
VH: B1 VH with I34M, S54G, Q55H, Y64F, S66G, V101I, H103D, I108L
VL: B1 VL with R24S, S28D, S31N, A50Y, Q55H, I56S, R93K, I94L
modifications: ADL5-D4 linker-payload on cysteine residues of the antibody, DAR 4.39
notes: antibody-drug conjugate
B6: AB213 (antibody, human IgG1, kappa, V domains shown)
VH: B1 VH with S30T, A50G, Q55H, D57T, Y64F
VL: B1 VL with Y91F, I94L
notes: IgG1 kappa
B7: AB217 (antibody, human IgG1, kappa, V domains shown)
VH: B1 VH with S30T, Q55H, N61A
VL: B1 VL with L33I, I56S
notes: IgG1 kappa
B8: AB215 (antibody, human IgG1, kappa, V domains shown)
VH: B1 VH with S30T, A50G, Q55H, D57T, Y64F
VL: B1 VL
notes: IgG1 kappa

How the values were obtained:
[1] = biological target: T1, human BCMA on NCI-H929, OPM2 and Raji …; test: flow cytometry, NCI-H929 cells
[2] = biological target: T1, human BCMA on NCI-H929, OPM2 and Raji …; test: flow cytometry on NCI-H929 cells (BCMA high), fluorescent anti-human IgG1 secondary antibody, MFI against antibody conc.
[3] = biological target: T1, human BCMA on NCI-H929, OPM2 and Raji …; test: flow cytometry, OPM2 cells
[4] = biological target: T1, human BCMA on NCI-H929, OPM2 and Raji …; test: flow cytometry, Raji cells
[5] = biological target: T1, human BCMA on NCI-H929, OPM2 and Raji …; test: flow cytometry on NCI-H929 cells (BCMA high), fluorescent anti-human IgG1 secondary antibody, MFI against test article concentration
[6] = biological target: T1, human BCMA on NCI-H929, OPM2 and Raji …; test: flow cytometry, NCI-H929 cells
[7] = biological target: T3, extracellular domain of rhesus monkey BCMA (rhesus monkey, UniProt F7FFA0 1-53); test: Octet BLI; Fab 200 nM
T3 construct: extracellular domain; also called RhBCMA
T3 sequence (F7FFA0 entry or part of it): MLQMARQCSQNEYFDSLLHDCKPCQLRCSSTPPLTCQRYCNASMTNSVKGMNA

[8] = biological target: T2, extracellular domain of human BCMA; test: Octet BLI; Fab 200 nM
[9] = biological target: T1, human BCMA on NCI-H929, OPM2 and Raji …; test: flow cytometry, NCI-H929 cells

Row | Binder | Kd [1] | EC50 (read off the curve) [2] | Kd [3] | Kd [4] | other results
1 | B1 | 2.84 nM | ~3 nM | 2.12 nM | 5.66 nM | 
2 | B2 |  |  |  |  | EC50 (read off the curve) [5]: ~6 nM; Kd [6]: 6 to 10 nM
3 | B3 |  |  |  |  | Kd [7]: 773 nM; Kd [8]: 591 nM
4 | B4 |  |  |  |  | Kd [8]: 151 nM
5 | B5 |  |  |  |  | EC50 (read off the curve) [5]: ~9 nM; Kd [9]: 9.8 nM; Kd [6]: 6 to 10 nM
6 | B6 | 4.26 nM | ~4 nM | 1.96 nM | 8.83 nM | 
7 | B7 | 3.38 nM | ~3 nM | 2.33 nM | 7.31 nM | 
8 | B8 | 8.06 nM | ~7 nM | 3.63 nM | 11.2 nM | 
